Assay results published in patent US20030162942A1 (DYAX, published 2003).
Changes are numbered by the printed parent chain. Positions of bridges follow the written chain, without caps; N, C: chain ends. No end group written: not given here.

B1: CMTI-I analogue 120, phage isolate (designed binder)
chain: RWCPKTSLECMKDSDCLAECVCLEHGYCGAGPSYIEGRIVGSA
notes: not shown: mature gene III protein of M13 phage
B2: CMTI-I analogue 101, phage isolate (designed binder)
chain: B1 chain with E9G
notes: as for B1
B3: CMTI-I analogue 102, phage isolate (designed binder)
chain: B1 chain with W2L, S7Y, E9G
notes: as for B1
B4: CMTI-I analogue 103, phage isolate (designed binder)
chain: B1 chain with P4S, K5T, T6Y, E9G
notes: as for B1
B5: CMTI-I analogue 104, phage isolate (designed binder)
chain: B1 chain with P4S, K5T, T6Y, E9G
notes: as for B1
B6: CMTI-I analogue 105, phage isolate (designed binder)
chain: B1 chain with W2L
notes: as for B1
B7: CMTI-I analogue 106, phage isolate (designed binder)
chain: B1 chain with P4S, K5T, T6Y, E9G
notes: as for B1
B8: CMTI-I analogue 107, phage isolate (designed binder)
chain: B1 chain with W2L
notes: as for B1
B9: CMTI-I analogue 108, phage isolate (designed binder)
chain: B1 chain with P4S, T6S
notes: as for B1
B10: CMTI-I analogue 109, phage isolate (designed binder)
chain: B1 chain with W2L, S7D, E9G
notes: as for B1
B11: CMTI-I analogue 110, phage isolate (designed binder)
chain: B1 chain with T6S, L8M, E9G, M11K
notes: as for B1
B12: CMTI-I analogue 111, phage isolate (designed binder)
chain: B1 chain with K5R, S7V, L8Q
notes: as for B1
B13: CMTI-I analogue 112, phage isolate (designed binder)
chain: B1 chain with K5T, T6A, S7P
notes: as for B1
B14: CMTI-I analogue 113, phage isolate (designed binder)
chain: B1 chain with W2L, S7D, E9G
notes: as for B1
B15: CMTI-I analogue 114, phage isolate (designed binder)
chain: B1 chain with T6S, S7A, E9D, M11K
notes: as for B1
B16: CMTI-I analogue 115, phage isolate (designed binder)
chain: B1 chain with P4T, L8R
notes: as for B1
B17: CMTI-I analogue 116, phage isolate (designed binder)
chain: B1 chain with P4I, K5R, S7D, E9G
notes: as for B1
B18: CMTI-I analogue 117, phage isolate (designed binder)
chain: B1 chain with E9G
notes: as for B1
B19: CMTI-I analogue 118, phage isolate (designed binder)
chain: B1 chain with K5R, S7V, L8R, E9R
notes: as for B1
B20: CMTI-I analogue 119, phage isolate (designed binder)
chain: B1 chain with S7H, L8K
notes: as for B1
B21: CMTI-I analogue 221, phage isolate (designed binder)
chain: B1 chain with T6S, S7T, E9G
notes: as for B1
B22: CMTI-I analogue 222, phage isolate (designed binder)
chain: B1 chain with T6S, S7T, E9G
notes: as for B1
B23: CMTI-I analogue 223, phage isolate (designed binder)
chain: B1 chain with T6Y, S7T
notes: as for B1
B24: CMTI-I analogue 224, phage isolate (designed binder)
chain: B1 chain with K5R, T6S
notes: as for B1
B25: CMTI-I analogue 226, phage isolate (designed binder)
chain: B1 chain with K5R, T6S, S7N
notes: as for B1
B26: CMTI-I analogue 228, phage isolate (designed binder)
chain: B1 chain with T6Y, S7T
notes: as for B1
B27: CMTI-I analogue 229, phage isolate (designed binder)
chain: B1 chain with T6Y, S7T
notes: as for B1
B28: CMTI-I analogue 232, phage isolate (designed binder)
chain: B1 chain with E9G
notes: as for B1
B29: CMTI-I analogue 233, phage isolate (designed binder)
chain: B1 chain with T6Y, S7T
notes: as for B1
B30: CMTI-I analogue 234, phage isolate (designed binder)
chain: B1 chain with K5R, T6S
notes: as for B1
B31: CMTI-I analogue 235, phage isolate (designed binder)
chain: B1 chain with T6S, S7T, E9G
notes: as for B1
B32: CMTI-I analogue 236, phage isolate (designed binder)
chain: B1 chain with K5R, T6S
notes: as for B1
B33: CMTI-I analogue 237, phage isolate (designed binder)
chain: B1 chain with K5R, T6S, S7N
notes: as for B1
B34: CMTI-I analogue 238, phage isolate (designed binder)
chain: B1 chain with K5R, T6S, S7N
notes: as for B1
B35: 15-amino acid segment derived from affinity ligand isolate #109 (peptide)
peptide: RLCPKTDLGCMKDSD
modifications: disulfide 3-10; also: bound to a chromatographic support
notes: also called truncated 15-amino acid segment of the isolate #109; C3-C10 loop

Biological target: human serum protease thrombin (human, UniProt P00734 328-622)
Experiment: phage binding to protein on beads (data not shown)

Does B1 bind?
Result: no binding

Does B2 bind?
Result: no binding

Does B3 bind?
Result: no binding

Does B4 bind?
Result: no binding

Does B5 bind?
Result: no binding

Does B6 bind?
Result: no binding

Does B7 bind?
Result: no binding

Does B8 bind?
Result: no binding

Does B9 bind?
Result: no binding

Does B10 bind?
Result: no binding

Does B11 bind?
Result: no binding

Does B12 bind?
Result: no binding

Does B13 bind?
Result: no binding

Does B14 bind?
Result: no binding

Does B15 bind?
Result: no binding

Does B16 bind?
Result: no binding

Does B17 bind?
Result: no binding

Does B18 bind?
Result: no binding

Does B19 bind?
Result: no binding

Does B20 bind?
Result: no binding

Does B21 bind?
Result: no binding

Does B22 bind?
Result: no binding

Does B23 bind?
Result: no binding

Does B24 bind?
Result: no binding

Does B25 bind?
Result: no binding

Does B26 bind?
Result: no binding

Does B27 bind?
Result: no binding

Does B28 bind?
Result: no binding

Does B29 bind?
Result: no binding

Does B30 bind?
Result: no binding

Does B31 bind?
Result: no binding

Does B32 bind?
Result: no binding

Does B33 bind?
Result: no binding

Does B34 bind?
Result: no binding

Biological target: human serum protease plasmin (human, UniProt P00747 97-810, limits assumed)
Sequence (P00747 97-810 limits assumed): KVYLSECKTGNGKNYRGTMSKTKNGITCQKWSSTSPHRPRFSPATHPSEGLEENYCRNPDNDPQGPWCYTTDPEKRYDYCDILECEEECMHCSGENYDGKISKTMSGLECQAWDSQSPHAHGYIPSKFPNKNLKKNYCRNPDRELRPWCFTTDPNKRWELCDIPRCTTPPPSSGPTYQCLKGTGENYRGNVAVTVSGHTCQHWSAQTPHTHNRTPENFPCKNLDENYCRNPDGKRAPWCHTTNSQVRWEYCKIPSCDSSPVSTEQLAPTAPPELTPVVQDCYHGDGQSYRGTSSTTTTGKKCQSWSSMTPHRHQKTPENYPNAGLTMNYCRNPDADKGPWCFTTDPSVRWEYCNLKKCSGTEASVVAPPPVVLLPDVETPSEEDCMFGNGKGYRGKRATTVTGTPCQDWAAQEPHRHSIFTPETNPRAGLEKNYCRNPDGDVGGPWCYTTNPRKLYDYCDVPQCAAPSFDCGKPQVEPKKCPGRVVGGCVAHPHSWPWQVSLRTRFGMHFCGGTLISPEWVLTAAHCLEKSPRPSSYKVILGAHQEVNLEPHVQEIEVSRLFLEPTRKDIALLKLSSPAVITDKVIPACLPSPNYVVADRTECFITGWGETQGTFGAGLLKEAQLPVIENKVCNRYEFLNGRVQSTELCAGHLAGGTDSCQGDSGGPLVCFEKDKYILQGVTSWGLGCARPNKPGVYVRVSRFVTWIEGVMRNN
Experiment: phage binding to protein on beads (data not shown)

Does B1 bind?
Result: no binding

Does B2 bind?
Result: no binding

Does B3 bind?
Result: no binding

Does B4 bind?
Result: no binding

Does B5 bind?
Result: no binding

Does B6 bind?
Result: no binding

Does B7 bind?
Result: no binding

Does B8 bind?
Result: no binding

Does B9 bind?
Result: no binding

Does B10 bind?
Result: no binding

Does B11 bind?
Result: no binding

Does B12 bind?
Result: no binding

Does B13 bind?
Result: no binding

Does B14 bind?
Result: no binding

Does B15 bind?
Result: no binding

Does B16 bind?
Result: no binding

Does B17 bind?
Result: no binding

Does B18 bind?
Result: no binding

Does B19 bind?
Result: no binding

Does B20 bind?
Result: no binding

Does B21 bind?
Result: no binding

Does B22 bind?
Result: no binding

Does B23 bind?
Result: no binding

Does B24 bind?
Result: no binding

Does B25 bind?
Result: no binding

Does B26 bind?
Result: no binding

Does B27 bind?
Result: no binding

Does B28 bind?
Result: no binding

Does B29 bind?
Result: no binding

Does B30 bind?
Result: no binding

Does B31 bind?
Result: no binding

Does B32 bind?
Result: no binding

Does B33 bind?
Result: no binding

Does B34 bind?
Result: no binding

Biological target: T1, recombinant human tissue-type plasminogen activator (tPA) (human, UniProt P00750 36-562)
T1 construct: Immobilized on ReactiGel agarose beads for the phage work; Used in solution for the column tests
T1 sequence (P00750 36-562 limits assumed): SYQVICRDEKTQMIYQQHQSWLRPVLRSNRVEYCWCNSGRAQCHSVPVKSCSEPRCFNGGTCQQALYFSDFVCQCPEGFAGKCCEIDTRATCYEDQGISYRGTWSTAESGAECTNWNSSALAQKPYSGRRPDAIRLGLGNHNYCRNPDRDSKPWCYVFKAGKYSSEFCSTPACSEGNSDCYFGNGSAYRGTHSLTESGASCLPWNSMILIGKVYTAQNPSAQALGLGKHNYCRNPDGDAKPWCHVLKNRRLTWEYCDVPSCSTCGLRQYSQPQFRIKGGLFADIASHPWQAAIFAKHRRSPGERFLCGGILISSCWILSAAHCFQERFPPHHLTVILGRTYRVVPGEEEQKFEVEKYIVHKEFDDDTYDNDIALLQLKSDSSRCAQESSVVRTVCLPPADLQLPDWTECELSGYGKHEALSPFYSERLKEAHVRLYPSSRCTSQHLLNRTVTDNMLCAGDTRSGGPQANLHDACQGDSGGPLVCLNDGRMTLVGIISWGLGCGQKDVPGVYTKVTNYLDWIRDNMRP
Experiment: phage display selection on tPA agarose beads, binding at pH 7
Protocol: For this work, tPA was purchased from CalBiochem (#612200) and immobilized on ReactiGel™ agarose beads from Pierce Chemical Company by methods described in Markland et al. (1996). Approximately 200 μg of tPA were coupled to 200 μL of ReactiGel™ slurry.
The phage libraries described were screened for binding to tPA through four rounds. In the first round, the phage libraries were mixed in separate reactions with tPA agarose beads at pH 7 in phosphate-buffered saline (PBS). Bovine serum albumin (BSA) was added at 0.1% to reduce non-specific binding. Unbound phage were washed off at pH 7, and the bound phage eluted at pH 2 for the first screen only. […] Pool A consisted of the combined outputs from the CMTI and Lib#1 libraries, and Pool B consisted of the combined outputs of the Lib#3 and Lib#5 libraries. The binding of pooled libraries was performed at pH 7, however, the first elution to remove bound phage was carried out at pH 5 and a subsequent elution at pH 2 to elute phage that are released in the pH 5-pH 2 range. This was repeated twice more for a total of 4 rounds of selection.

Does B1 bind?
Result: binds

Does B2 bind?
Result: binds

Does B3 bind?
Result: binds

Does B4 bind?
Result: binds

Does B5 bind?
Result: binds

Does B11 bind?
Result: binds

Does B12 bind?
Result: binds

Does B13 bind?
Result: binds

Does B14 bind?
Result: binds

Does B15 bind?
Result: binds

Does B16 bind?
Result: binds

Does B17 bind?
Result: binds

Does B18 bind?
Result: binds

Does B19 bind?
Result: binds

Does B20 bind?
Result: binds

Does B21 bind?
Result: binds

Does B22 bind?
Result: binds

Does B23 bind?
Result: binds

Does B24 bind?
Result: binds

Does B25 bind?
Result: binds

Does B26 bind?
Result: binds

Does B27 bind?
Result: binds

Does B28 bind?
Result: binds

Does B29 bind?
Result: binds

Does B30 bind?
Result: binds

Does B31 bind?
Result: binds

Does B32 bind?
Result: binds

Does B33 bind?
Result: binds

Does B34 bind?
Result: binds

Biological target: T1, recombinant human tissue-type …
Experiment: phage isolate binding to and pH release from immobilized tPA

Does B6 bind?
Result: binds

Does B7 bind?
Result: binds

Does B8 bind?
Result: binds

Does B9 bind?
Result: binds

Does B10 bind?
Result: binds

Biological target: T1, recombinant human tissue-type …
Experiment: peptide bound to a chromatographic support

Does B35 bind?
Result: binds
